A word on the koff: it is the rate constant with which the complex falls apart. Read a high koff as fast dissociation.

The assay concerns the target biotinylated Stx2a holotoxin (Shiga toxin-producing E. coli (STEC), UniProt P09385;P09386). The assay is described as follows: BLI. A general note: BLI is a label-free optical method that tracks binding on a fibre tip over time.

Sequence of biotinylated Stx2a holotoxin (P09385 23-319, chain 1 of 2): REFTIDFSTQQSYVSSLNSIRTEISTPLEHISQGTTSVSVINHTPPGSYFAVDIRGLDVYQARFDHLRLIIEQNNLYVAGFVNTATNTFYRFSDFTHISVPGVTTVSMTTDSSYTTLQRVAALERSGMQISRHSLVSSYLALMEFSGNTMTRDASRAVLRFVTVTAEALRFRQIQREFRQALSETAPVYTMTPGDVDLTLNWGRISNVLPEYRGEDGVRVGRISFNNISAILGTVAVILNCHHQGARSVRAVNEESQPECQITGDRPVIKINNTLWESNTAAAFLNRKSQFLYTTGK
Sequence of biotinylated Stx2a holotoxin (P09386 20-89, chain 2 of 2): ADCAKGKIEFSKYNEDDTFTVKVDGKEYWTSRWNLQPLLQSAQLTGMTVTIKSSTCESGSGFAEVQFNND

B1: dimeric DARPin SD5 (#3-SHT) (designed binder)
chain: GKKLLEAARAGQDDEVRILMANGADVNACDSNGRTPLHLAAVRGHLEIVEVLLKNGADVNAWDVIGKTPLHLAADGGHLEIVEVLLKNGADVNAWDLIGRTPLHLAALDGHLEIVEVLLEHGADVNAYDRPGHTPLHLAARRGHLEIVEVLLKYGADVNAQDKFGKTAFDISIDNGNEDLAEILQGGGGSGGGGSGGGGSGGGGSGKKLLEAARAGQDDEVRILVANGADVNAGDPFGFTPLHLAALYGHLEIVEVLLKNGADVNAHEEYGFTPLHLAAVVSHMEIVEVLLNNGADVNARDNQGGSPLHLASHTGHLEIVEVLLKQGADVNAQDKFGKTAYDISIDIGNEDLAEILQ
B1 gave a koff of 0.0126 s⁻¹.

B2: DARPin #3 (designed binder)
chain: GKKLLEAARAGQDDEVRILMANGADVNACDSNGRTPLHLAAVRGHLEIVEVLLKNGADVNAWDVIGKTPLHLAADGGHLEIVEVLLKNGADVNAWDLIGRTPLHLAALDGHLEIVEVLLEHGADVNAYDRPGHTPLHLAARRGHLEIVEVLLKYGADVNAQDKFGKTAFDISIDNGNEDLAEILQ
B2 showed a koff of 0.0438 s⁻¹. This koff lies about 3.5-fold higher than the previous one.

Source of the values: paper PMC9598796 (2022).
